Data as given in patent US20240010748A1.

Biological target: murine Claudin 18.2 (mCLDN18.2) on stably-transfected HEK293 cells (murine) (UniProt P56857)
Assay: FACS on HEK293-mCLDN18.2 cells

MFI (Max): 543 MFI
B1: h160C9AA (antibody, human IgG1, lambda, L234A L235A, V domains shown)
VH: EVKLVESGGGLVQPGGSLKLSCAASGFTFNTYAMNWVRQAPGKGLEWVARIRSKYNNYATYYADSVKDRFTISRDDAKNTLYLQMNNLRTEDTAVYYCVRHGNFGNSYVSWFAYWGQGTLVTVSS
VL: QAVVTQEPSLTVSPGGTVTLTCRSSTGAVTTSNYANWVQQKPGQAPRGLIGGTNKRAPGTPARFSGSLLGGKAALTLSGAQPEDEAEYYCALWYSNLWVFGGGTKLTVLG
